Measurements: publication PMC10553838, “Functional and structural insights into the multi-step activation and catalytic mechanism of bacterial ExoY nucleotidyl cyclase toxins bound to actin-profilin” (PLOS Pathogens, 2023)

Key:
[1] = target: Alexa-488-labelled G-actin-ATP (rabbit) (UniProt P68135); assay: AUC
[2] = target: α-actin from rabbit skeletal muscle, monomeric (G-actin) (rabbit) (UniProt P68135); assay: pyrene-actin seeded elongation rates with profilin, fitted with G-actin sequestration by Vn-ExoY
[3] = target: α-actin from rabbit skeletal muscle, monomeric (G-actin) (rabbit) (UniProt P68135); assay: pyrene-actin seeded elongation rates fitted to a G-actin sequestration model; initial barbed-end (spectrin-actin seeds) and pointed-end (gelsolin-actin seeds) growth rates, 1.5 μM G-actin-ATP-Mg, increasing Vn-ExoY^DM; 28 mM KCl, 2 mM MgCl2, 10 mM Tris-HCl pH 7.5, 2 mM ATP, 1 mM DTT; 25°C; KD from the fit of Eq 1 and 2

In the case of “Trx-Vn-ExoY (Vn-ExoY fused to Thioredoxin) (domain or fragment)”, the Kd [1] is reported as 11.7 µM and the stoichiometry N [1] is reported as 1.
Substance “Vn-ExoY^3412-3873 (wild type) (domain or fragment)” has a Kd [2] of 12 to 14 µM.
Substance “Vn-ExoY^DM (Vn-ExoY^412-873 K528M/K535I, inactive double mutant) (domain or fragment)” has a Kd [3] of 21 µM and a stoichiometry N [3] of 1.
